Measured values reported in patent publication US20260217847A1.

Assays:
[1] = biological target: TfR1 protein stably expressed on CHO-K1-TfR1 cells (UniProt P02786); assay: cell-based or functional assay
[2] = biological target: TfR1 on human erythroleukemia TF-1 cells (human) (UniProt P02786); assay: cell-based or functional assay
Sequence of TfR1 on human erythroleukemia TF-1 cells (human) (P02786 whole entry): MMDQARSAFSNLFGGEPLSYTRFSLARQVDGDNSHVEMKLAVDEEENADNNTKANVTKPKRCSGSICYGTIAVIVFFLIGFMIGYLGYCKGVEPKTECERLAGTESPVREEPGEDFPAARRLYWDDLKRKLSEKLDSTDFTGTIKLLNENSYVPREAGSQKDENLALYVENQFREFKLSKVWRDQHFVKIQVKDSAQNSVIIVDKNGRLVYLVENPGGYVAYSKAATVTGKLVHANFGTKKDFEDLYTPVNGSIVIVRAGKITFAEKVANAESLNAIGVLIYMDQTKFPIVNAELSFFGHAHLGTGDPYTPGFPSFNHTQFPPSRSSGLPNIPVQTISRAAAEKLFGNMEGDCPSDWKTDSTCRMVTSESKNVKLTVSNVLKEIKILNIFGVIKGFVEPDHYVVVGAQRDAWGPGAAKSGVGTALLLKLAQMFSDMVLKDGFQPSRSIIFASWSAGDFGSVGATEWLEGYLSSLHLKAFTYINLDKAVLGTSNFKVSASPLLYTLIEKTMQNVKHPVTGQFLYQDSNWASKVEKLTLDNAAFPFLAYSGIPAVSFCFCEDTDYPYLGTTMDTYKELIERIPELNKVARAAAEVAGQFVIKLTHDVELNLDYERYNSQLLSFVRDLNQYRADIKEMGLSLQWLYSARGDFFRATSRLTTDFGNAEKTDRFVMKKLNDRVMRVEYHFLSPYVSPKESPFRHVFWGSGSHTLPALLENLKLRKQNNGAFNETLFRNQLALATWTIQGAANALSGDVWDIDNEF

Sequence of TfR1 protein stably expressed on CHO-K1-TfR1 cells (P02786 whole entry): as above
Sequence of Tab4, pabinafusp alfa targeting humanized TfR1 (antibody) (VH): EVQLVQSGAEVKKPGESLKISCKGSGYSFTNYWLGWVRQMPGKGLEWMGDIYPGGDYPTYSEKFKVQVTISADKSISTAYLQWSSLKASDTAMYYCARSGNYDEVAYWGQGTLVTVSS
Sequence of Tab4, pabinafusp alfa targeting humanized TfR1 (antibody) (VL): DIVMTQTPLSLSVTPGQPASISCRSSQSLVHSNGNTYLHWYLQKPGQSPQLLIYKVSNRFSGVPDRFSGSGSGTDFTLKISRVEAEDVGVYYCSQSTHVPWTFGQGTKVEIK

**Q.** With “Tab4, pabinafusp alfa targeting humanized TfR1 (antibody)” as the substance, how does the CHO-K1-TfR1 internalization, fold (MFI at 37° C. to MFI at 4° C.) [1] read?
**A.** 2.36 fold

**Q.** What about the CHO-K1-TfR1 internalization, pHrodo label, 4° C. MFI (background value) [1] of the same substance?
**A.** 520 MFI

**Q.** What about the CHO-K1-TfR1 internalization, pHrodo label, 37° C. MFI [1] of the same substance?
**A.** 1230 MFI

**Q.** And the TF-1 cell internalization, fold (MFI at 37° C. to MFI at 4° C.) [2]?
**A.** 1.83 fold

**Q.** What about the TF-1 cell internalization, pHrodo label, 4° C. MFI (background value) [2] of the same substance?
**A.** 712 MFI

**Q.** And the TF-1 cell internalization, pHrodo label, 37° C. MFI [2]?
**A.** 1300 MFI

**Q.** For hIgG isotype control (antibody), which CHO-K1-TfR1 internalization, fold (MFI at 37° C. to MFI at 4° C.) [1] is on record?
**A.** 1.53 fold

**Q.** What about the CHO-K1-TfR1 internalization, pHrodo label, 4° C. MFI (background value) [1] of the same substance?
**A.** 464 MFI

**Q.** And the CHO-K1-TfR1 internalization, pHrodo label, 37° C. MFI [1]?
**A.** 711 MFI

**Q.** And the TF-1 cell internalization, fold (MFI at 37° C. to MFI at 4° C.) [2]?
**A.** 1.01 fold

**Q.** And the TF-1 cell internalization, pHrodo label, 4° C. MFI (background value) [2]?
**A.** 471 MFI

**Q.** What about the TF-1 cell internalization, pHrodo label, 37° C. MFI [2] of the same substance?
**A.** 476 MFI
